Reference: US20070192880

Assays:
[1] = biological target: T1, CDC ERE binding module (ERα C domain - D hinge - C domain fusion) (UniProt P03372); assay: EMSA; settings: apparent Kd from EMSA competition
T1 sequence: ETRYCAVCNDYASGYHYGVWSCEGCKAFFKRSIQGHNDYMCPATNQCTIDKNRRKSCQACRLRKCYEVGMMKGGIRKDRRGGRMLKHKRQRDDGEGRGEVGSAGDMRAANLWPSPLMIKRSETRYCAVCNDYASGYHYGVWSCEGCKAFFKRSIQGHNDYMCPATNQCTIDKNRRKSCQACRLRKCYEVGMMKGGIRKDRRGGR

ERα (Homo sapiens) = biological target: T2, ERα (Homo sapiens) (UniProt P03372); assay: EMSA; settings: EMSA competition
T2 sequence: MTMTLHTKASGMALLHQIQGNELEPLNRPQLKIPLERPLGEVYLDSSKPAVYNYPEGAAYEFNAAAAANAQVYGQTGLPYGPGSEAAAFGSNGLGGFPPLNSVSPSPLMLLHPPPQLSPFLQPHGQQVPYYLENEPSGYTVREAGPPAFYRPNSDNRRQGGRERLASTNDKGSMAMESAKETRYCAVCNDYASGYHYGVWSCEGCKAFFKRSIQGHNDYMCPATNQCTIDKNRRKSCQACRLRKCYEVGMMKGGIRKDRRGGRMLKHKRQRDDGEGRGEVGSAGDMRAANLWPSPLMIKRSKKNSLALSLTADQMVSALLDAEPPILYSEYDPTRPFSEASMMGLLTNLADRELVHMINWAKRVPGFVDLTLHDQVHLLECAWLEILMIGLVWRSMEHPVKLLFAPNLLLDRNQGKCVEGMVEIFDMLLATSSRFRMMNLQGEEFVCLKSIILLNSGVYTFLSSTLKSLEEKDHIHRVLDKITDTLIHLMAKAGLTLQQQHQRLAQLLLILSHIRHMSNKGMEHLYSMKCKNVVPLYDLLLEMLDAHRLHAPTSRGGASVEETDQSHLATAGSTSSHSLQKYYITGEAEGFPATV

CDC-SID = biological target: T3, CDC-SID (UniProt P03372); assay: cell_activity
T3 sequence: T1 sequence

SID-CDC = biological target: T4, SID-CDC (UniProt P03372); assay: cell_activity
T4 sequence: T1 sequence

KRAB-CDC-SID = biological target: T5, KRAB-CDC-SID (UniProt P03372); assay: cell_activity; settings: COS-1
T5 sequence: T1 sequence

SID-CDC-KRAB = biological target: T6, SID-CDC-KRAB (UniProt P03372); assay: cell_activity; settings: COS-1
T6 sequence: T1 sequence

CDC-KRAB = biological target: T7, CDC-KRAB (UniProt P03372); assay: cell_activity; settings: COS-1 and CHO; no effect without ERE
T7 sequence: T1 sequence

KRAB-CDC = biological target: T8, KRAB-CDC (UniProt P03372); assay: cell_activity; settings: COS-1 and CHO; no effect without ERE
T8 sequence: T1 sequence

CDC (expressed in cells) = biological target: T9, CDC (expressed in cells) (UniProt P03372); assay: cell_activity; settings: COS-1; little effect in CHO
T9 sequence: T1 sequence

SID-CDC-SID = assay: cell_activity; settings: COS-1; given as decreased about 60% of that observed with parent vector
ERα (expressed in cells) = ERα (expressed in cells) (UniProt P03372); assay: cell_activity; settings: COS-1, E2; about 2-fold without ligand
[2] = COS-1 and CHO, no effect without ERE
[3] = COS-1, given as decreased about 60% of that observed with parent vector

SID-CDC-SID, sequence (chain, as listed by the source): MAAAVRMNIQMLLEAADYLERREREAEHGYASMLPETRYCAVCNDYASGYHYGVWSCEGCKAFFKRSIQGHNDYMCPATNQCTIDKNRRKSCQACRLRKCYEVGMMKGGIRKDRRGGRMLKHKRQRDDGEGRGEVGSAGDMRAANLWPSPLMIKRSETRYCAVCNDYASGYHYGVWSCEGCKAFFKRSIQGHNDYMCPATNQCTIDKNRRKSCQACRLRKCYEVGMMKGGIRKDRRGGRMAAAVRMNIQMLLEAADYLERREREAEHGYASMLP

“GGTCANNNTGACC (double strand) [consensus ERE]” showed a Kd [1] of 1.49 nM and a Kd (ERα (Homo sapiens)) of 0.26 nM.
“GGTCANNNTGACC (double strand) [SV40 enhancer/promoter with one consensus ERE]” gave an activity (CDC-SID; [2]) of 80 % repression, an activity (SID-CDC; [2]) of 50 % repression and an activity (KRAB-CDC-SID) of 95 % repression. It also gave an activity (SID-CDC-KRAB) of 95 % repression, an activity (CDC-KRAB) of 80 % repression and an activity (KRAB-CDC) of 50 % repression. The activity (CDC (expressed in cells)) was 50 % repression.
For cathepsin D promoter, the activity (CDC-SID; [3]) was 60 % repression, the activity (SID-CDC; [3]) was 60 % repression and the activity (SID-CDC-SID) was 60 % repression.
For complement C3 promoter, the activity (ERα (expressed in cells)) was 11 fold.
